Source: article PMC8938331 (Molecular Metabolism, 2022)

What was measured:
[1] = biological target: T1, Recombinant mouse MD2 (Beijing ABIOCENTER) (mouse, UniProt Q9JHF9 19-160); assay: SPR
T1 sequence (looked up): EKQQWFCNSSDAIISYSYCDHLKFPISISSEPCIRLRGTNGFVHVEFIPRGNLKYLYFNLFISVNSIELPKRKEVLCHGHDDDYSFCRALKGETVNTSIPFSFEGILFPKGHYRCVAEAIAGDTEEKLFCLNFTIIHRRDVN

[2] = biological target: T2, Recombinant mouse TLR4 (R&D system) (mouse, UniProt Q9QUK6 26-638); assay: SPR
T2 sequence (looked up): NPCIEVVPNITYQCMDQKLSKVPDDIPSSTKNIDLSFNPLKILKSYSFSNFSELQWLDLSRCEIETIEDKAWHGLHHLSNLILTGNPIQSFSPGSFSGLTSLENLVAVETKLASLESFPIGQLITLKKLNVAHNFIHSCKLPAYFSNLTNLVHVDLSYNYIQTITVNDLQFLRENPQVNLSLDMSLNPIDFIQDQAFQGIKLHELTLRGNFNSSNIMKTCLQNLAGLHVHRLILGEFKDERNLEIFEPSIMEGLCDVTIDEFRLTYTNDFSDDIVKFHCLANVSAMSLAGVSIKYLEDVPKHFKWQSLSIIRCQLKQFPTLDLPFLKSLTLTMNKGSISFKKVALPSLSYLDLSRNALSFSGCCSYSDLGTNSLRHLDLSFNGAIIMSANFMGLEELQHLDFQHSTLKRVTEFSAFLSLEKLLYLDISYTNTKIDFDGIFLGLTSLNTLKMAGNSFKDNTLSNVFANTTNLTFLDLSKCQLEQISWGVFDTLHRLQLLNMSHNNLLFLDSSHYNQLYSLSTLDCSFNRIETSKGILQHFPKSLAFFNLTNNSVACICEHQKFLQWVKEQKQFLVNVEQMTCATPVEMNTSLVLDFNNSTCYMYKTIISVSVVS

B1: Mouse serum amyloid A1 (residues 19-122), recombinant (natural protein, UniProt P05366 19-122, looked up)
chain: GGFFSFVHEAFQGAGDMWRAYTDMKEANWKNSDKYFHARGNYDAAQRGPGGVWAAEKISDGREAFQEFFGRGHEDTIADQEANRHGRSGKDPNYYRPPGLPDKY
**Q.** What does the source list for B1?
**A.** Kd [1]: 0.123 µM; Kd [2]: 0.497 µM
